Assay results reported in article PMC4655608 (The Biochemical journal, 2015).
One block for each binder: values may come before it.

Molecular target: catalytic p110γ subunit of class IB phosphoinositide 3-kinase (PI3Kγ) (human, UniProt P48736 1-1102)
Experiment: AUC

Chain of catalytic p110γ subunit of class IB phosphoinositide 3-kinase (PI3Kγ) (P48736 whole entry): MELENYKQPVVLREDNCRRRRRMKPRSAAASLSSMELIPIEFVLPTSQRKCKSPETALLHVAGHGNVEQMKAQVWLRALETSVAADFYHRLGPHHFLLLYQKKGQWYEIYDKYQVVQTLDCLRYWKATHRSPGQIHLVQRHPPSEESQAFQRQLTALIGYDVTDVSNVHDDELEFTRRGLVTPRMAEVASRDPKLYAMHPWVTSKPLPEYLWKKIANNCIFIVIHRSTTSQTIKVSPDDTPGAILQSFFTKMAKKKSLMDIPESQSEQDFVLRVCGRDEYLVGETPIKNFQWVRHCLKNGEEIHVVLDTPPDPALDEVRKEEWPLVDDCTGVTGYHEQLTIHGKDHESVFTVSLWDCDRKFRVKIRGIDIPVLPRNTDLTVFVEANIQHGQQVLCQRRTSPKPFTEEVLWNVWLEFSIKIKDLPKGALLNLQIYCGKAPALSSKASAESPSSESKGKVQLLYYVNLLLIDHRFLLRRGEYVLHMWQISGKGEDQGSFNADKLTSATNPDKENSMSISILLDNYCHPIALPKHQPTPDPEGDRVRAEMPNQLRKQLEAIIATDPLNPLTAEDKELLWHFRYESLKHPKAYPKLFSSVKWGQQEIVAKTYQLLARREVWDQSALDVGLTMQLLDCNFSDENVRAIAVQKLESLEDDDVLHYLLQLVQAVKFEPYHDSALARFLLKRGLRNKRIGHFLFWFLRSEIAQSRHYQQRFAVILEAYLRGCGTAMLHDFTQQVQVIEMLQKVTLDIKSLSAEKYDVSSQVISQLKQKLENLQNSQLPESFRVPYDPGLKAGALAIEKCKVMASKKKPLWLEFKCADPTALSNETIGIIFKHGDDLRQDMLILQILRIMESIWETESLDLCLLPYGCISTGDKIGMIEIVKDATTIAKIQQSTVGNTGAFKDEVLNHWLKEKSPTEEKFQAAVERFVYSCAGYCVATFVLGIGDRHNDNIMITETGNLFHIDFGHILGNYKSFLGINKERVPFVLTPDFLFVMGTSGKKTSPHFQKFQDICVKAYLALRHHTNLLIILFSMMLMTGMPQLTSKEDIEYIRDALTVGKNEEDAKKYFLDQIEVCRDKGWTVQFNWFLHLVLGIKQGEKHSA

Kd: ≤ 200 nM
B1: p87 non-catalytic subunit of PI3Kγ (natural protein, UniProt Q5UE93 1-754, looked up)
chain: MESSDVELDLQRSVQAVLRELSTQAPALQSNQGMWRWSLHKKVERDPGKSPVLVRILLRELEKAESQDLRHVIIPLLHTVMYVLTKATGITEELYQRIYAFCTRLLTLPTPYCTVALDCAIRLKTEMAVPGTLYQRMVIAEQNLTNELYPYQERVFLFVDPELVSASVCSALLLEIEAAQAQQTPETCMRHVVSHALQAALGEACHAGALHRKLQASPRRTLEHYFHAVVAALEQMASEASPSREGHVERLEEIYCSLLGPAAGRCGGDLVQERPPSIPLPSPYITFHLWTGEEQLWKELVLFLRPRSQLRLSADLEVLDLQGLRPDRELARVSVLSTDSGIERDLPTGADELPAPGSPEMERAGLQRKGGIKKRAWPLDFLMPGSWDGPPGLHRRTGRPSGDGEMLPGVSRLHTARVLVLGDDRMLGRLAQAYHRLRKRETQKFCLTPRLSLQLYYIPVLAPEKPAASRQPELGELATFLGRVDPWYQSNVNTLCPAIHKLAEMPPSLDTSRTVDPFILDVITYYIRMGTQPIYFQIYTVKIFFSDLSQDPTEDIFLIELKVKIQDSKFPKDGFSPRRRGVAEGPGAELSLCYQKALLSHRPREVTVSLRATGLILKAIPASDTEVSGSSHCPLPAAPVTDHTCLNVNVTEVVKSSNLAGKSFSTVTNTFRTNNIQIQSRDQRLLTLSLDKDDQRTFRDVVRFEVAPCPEPCSGAQKSKAPWLNLHGQQEVEAIKAKPKPLLMPINTFSGIVQ

Kd: ≤ 100 nM
B2: p101 non-catalytic subunit of PI3Kγ (natural protein, UniProt Q8WYR1 1-880, looked up)
chain: MQPGATTCTEDRIQHALERCLHGLSLSRRSTSWSAGLCLNCWSLQELVSRDPGHFLILLEQILQKTREVQEKGTYDLLTPLALLFYSTVLCTPHFPPDSDLLLKAASTYHRFLTWPVPYCSICQELLTFIDAELKAPGISYQRLVRAEQGLPIRSHRSSTVTVLLLNPVEVQAEFLAVANKLSTPGHSPHSAYTTLLLHAFQATFGAHCDVPGLHCRLQAKTLAELEDIFTETAEAQELASGIGDAAEARRWLRTKLQAVGEKAGFPGVLDTAKPGKLHTIPIPVARCYTYSWSQDSFDILQEILLKEQELLQPGILGDDEEEEEEEEEVEEDLETDGHCAERDSLLSTSSLASHDSTLSLASSQASGPALSRHLLTSFVSGLSDGMDSGYVEDSEESSSEWPWRRGSQERRGHRRPGQKFIRIYKLFKSTSQLVLRRDSRSLEGSSDTALPLRRAGSLCSPLDEPVSPPSRAQRSRSLPQPKLGTQLPSWLLAPASRPQRRRPFLSGDEDPKASTLRVVVFGSDRISGKVARAYSNLRRLENNRPLLTRFFKLQFFYVPVKRSHGTSPGACPPPRSQTPSPPTDSPRHASPGELGTTPWEESTNDISHYLGMLDPWYERNVLGLMHLPPEVLCQQSLKAEAQALEGSPTQLPILADMLLYYCRFAARPVLLQVYQTELTFITGEKTTEIFIHSLELGHSAATRAIKASGPGSKRLGIDGDREAVPLTLQIIYSKGAISGRSRWSNLEKVCTSVNLNKACRKQEELDSSMEALTLNLTEVVKRQNSKSKKGFNQISTSQIKVDKVQIIGSNSCPFAVCLDQDERKILQSVVRCEVSPCYKPEKSDLSSPPQTPPDLPAQAAPDLCSLLCLPIMTFSGALP
